From patent US20210371518A1 (University of Texas, published 2021) come the findings set out here.

Assay [1] has as its target T1, human LILRB4 extracellular domain (ECD) recombinant protein (human, UniProt Q8NHJ6 22-259).
T1 construct: extracellular domain; also called LILRB4 ECD; LILRB4-ECD
As to the kind of experiment: ELISA. (An ELISA detects its analyte on a solid surface through an enzyme-linked reagent.)

Assay [2] addresses T1, human LILRB4 extracellular domain (ECD) …. As to the kind of experiment: Octet. In general terms: In BLI a coated tip is dipped into the sample, and binding shifts an interference pattern.
The next assay concerns the target LILRB1 (human (not printed on the sheet), UniProt Q8NHL6). As to the kind of experiment: LILR reporter cells on coated antibody, GFP positive (%). The procedure:
(§1) FIGS. 41A-41M illustrate specific binding of h193 antibodies to LILRB4 protein. FIGS. 41A-41L illustrate the specificity of h193 antibodies determined by LILR reporter assays, in which LILR reporter cells are added to the plates coated with h193 antibodies. The binding of h193 antibodies to the ECD of the LILR member on the surface of the reporter cells induced GFP signal. FIG. 41M illustrates the specificity of an exemplary h193 antibody determined by ELISA. LILRA and LILRB recombinant proteins were coated on high absorption 96-well plates. Serial diluted (5-fold) mAb h193 were added to the coated/blocked plates and detected using goat anti-human IgG F(ab)2 conjugated HRP as secondary antibody.

The next assay concerns the target LILRB2 (human (not printed on the sheet), UniProt Q8N423). Described as above. The procedure: as §1
The target of a further assay is LILRB3 (human (not printed on the sheet), UniProt O75022). The assay is described as above. The protocol: as §1
LILRB3, sequence (O75022 24-443 limits assumed): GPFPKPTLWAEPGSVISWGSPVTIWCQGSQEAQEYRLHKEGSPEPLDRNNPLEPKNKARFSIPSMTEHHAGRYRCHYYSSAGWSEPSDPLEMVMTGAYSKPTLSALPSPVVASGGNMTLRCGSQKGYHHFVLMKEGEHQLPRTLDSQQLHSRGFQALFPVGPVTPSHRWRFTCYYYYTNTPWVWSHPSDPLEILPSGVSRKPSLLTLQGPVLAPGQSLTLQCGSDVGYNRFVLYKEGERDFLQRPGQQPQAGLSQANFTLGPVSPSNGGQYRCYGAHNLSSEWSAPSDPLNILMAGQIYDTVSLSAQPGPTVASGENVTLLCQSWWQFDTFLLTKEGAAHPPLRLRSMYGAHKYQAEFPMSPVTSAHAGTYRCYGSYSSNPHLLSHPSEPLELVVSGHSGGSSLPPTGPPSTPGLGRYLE
In a further assay the target is LILRB5 (human (not printed on the sheet), UniProt O75023). The description is as above. The protocol:
as §1

The target in a further assay is LILRA1 (human (not printed on the sheet), UniProt O75019). The description is as above. The protocol: as §1
LILRA1, sequence (O75019 17-461 limits assumed): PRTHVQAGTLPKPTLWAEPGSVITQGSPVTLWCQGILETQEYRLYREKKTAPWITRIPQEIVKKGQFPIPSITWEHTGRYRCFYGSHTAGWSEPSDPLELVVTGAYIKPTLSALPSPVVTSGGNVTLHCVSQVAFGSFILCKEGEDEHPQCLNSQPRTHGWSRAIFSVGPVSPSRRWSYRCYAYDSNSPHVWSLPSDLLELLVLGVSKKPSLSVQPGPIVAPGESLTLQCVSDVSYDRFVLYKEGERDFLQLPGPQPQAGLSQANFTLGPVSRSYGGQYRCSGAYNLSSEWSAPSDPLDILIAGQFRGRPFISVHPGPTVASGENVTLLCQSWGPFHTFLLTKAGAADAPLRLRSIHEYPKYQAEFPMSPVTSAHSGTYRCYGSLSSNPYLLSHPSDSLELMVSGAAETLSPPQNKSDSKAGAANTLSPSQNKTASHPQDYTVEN
The target of the next assay is LILRA2 (human (not printed on the sheet), UniProt Q8N149). Described as above. The procedure:
as §1

In a further assay the target is LILRA3 (human (not printed on the sheet), UniProt Q8N6C8). The assay is described as above. The procedure:
as §1

Another assay addresses LILRA4 (human (not printed on the sheet), UniProt P59901). Described as above. The procedure:
as §1

The next assay has as its target LILRA5 (human (not printed on the sheet), UniProt A6NI73). The assay is described as above. The procedure: as §1
The next assay has as its target LILRA6 (human (not printed on the sheet), UniProt Q6PI73). The description is as above. The protocol:
as §1

Numbering of substitutions follows the chain as printed. “And” between values parts separate entries of the source, which are not always exact repeats. Identical values can stand only once.

LILRB5, sequence (O75023 24-458 limits assumed): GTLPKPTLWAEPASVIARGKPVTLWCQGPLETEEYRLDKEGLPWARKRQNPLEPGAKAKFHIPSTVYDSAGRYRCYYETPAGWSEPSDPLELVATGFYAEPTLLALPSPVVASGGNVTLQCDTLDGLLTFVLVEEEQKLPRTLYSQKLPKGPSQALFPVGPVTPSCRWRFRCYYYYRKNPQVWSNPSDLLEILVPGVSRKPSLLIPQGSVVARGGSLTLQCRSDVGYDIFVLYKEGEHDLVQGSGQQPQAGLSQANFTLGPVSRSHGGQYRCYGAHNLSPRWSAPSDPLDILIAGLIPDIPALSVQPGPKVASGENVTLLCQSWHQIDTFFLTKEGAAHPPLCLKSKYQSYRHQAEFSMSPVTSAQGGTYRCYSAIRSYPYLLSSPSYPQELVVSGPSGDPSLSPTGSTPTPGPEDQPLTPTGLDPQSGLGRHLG
LILRA2, sequence (Q8N149 24-449 limits assumed): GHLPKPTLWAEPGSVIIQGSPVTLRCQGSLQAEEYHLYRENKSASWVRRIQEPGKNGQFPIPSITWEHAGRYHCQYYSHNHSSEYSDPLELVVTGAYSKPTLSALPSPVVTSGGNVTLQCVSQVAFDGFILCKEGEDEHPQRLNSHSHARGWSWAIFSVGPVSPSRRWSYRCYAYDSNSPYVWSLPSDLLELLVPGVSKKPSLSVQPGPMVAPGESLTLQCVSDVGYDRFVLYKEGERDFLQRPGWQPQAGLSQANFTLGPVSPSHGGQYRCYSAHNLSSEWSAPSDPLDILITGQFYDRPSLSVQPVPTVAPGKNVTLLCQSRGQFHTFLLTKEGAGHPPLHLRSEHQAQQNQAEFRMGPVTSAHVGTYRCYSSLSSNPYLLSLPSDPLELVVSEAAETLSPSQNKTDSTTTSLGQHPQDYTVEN
LILRA5, sequence (A6NI73 42-268 limits assumed): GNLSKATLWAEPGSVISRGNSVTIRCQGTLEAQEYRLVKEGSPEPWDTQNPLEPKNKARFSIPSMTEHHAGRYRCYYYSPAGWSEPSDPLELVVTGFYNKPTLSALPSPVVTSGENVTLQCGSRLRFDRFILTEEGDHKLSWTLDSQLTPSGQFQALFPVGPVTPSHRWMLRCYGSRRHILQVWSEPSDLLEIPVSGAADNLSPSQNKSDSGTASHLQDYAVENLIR
LILRB2, sequence (Q8N423 22-460 limits assumed): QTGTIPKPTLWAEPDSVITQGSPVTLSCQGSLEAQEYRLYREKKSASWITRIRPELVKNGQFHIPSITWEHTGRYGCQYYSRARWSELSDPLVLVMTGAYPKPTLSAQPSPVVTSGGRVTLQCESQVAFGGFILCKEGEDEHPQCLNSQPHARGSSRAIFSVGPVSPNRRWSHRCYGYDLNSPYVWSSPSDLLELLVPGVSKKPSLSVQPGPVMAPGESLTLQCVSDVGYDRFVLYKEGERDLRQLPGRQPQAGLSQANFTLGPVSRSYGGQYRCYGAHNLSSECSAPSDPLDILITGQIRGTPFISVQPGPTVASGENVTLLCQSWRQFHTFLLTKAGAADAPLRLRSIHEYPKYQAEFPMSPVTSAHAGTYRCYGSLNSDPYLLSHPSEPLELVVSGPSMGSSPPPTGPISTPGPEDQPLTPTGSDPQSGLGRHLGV
LILRA6, sequence (Q6PI73 24-447 limits assumed): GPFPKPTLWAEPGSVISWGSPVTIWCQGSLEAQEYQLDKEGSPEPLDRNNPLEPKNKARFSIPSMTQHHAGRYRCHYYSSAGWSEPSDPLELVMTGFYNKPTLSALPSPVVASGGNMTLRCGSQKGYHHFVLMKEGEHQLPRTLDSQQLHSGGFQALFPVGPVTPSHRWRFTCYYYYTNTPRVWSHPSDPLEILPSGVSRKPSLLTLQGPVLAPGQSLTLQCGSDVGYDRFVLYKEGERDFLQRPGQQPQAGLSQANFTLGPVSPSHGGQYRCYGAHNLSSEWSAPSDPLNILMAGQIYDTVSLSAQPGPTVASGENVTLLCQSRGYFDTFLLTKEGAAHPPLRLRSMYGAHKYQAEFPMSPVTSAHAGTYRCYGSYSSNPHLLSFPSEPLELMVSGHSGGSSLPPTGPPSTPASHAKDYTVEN
LILRA3, sequence (Q8N6C8 24-439 limits assumed): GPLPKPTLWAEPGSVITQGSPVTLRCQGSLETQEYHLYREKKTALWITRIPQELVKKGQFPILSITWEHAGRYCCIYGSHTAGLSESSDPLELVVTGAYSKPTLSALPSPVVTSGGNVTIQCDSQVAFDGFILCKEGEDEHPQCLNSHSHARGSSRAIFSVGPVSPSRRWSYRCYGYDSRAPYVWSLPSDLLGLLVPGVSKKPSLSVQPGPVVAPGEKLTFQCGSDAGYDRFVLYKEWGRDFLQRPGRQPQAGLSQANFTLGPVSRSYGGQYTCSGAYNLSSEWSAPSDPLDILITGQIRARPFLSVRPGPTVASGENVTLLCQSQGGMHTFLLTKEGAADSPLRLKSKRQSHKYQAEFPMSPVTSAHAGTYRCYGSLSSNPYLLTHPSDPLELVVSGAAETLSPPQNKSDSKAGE
LILRB1, sequence (Q8NHL6 24-461 limits assumed): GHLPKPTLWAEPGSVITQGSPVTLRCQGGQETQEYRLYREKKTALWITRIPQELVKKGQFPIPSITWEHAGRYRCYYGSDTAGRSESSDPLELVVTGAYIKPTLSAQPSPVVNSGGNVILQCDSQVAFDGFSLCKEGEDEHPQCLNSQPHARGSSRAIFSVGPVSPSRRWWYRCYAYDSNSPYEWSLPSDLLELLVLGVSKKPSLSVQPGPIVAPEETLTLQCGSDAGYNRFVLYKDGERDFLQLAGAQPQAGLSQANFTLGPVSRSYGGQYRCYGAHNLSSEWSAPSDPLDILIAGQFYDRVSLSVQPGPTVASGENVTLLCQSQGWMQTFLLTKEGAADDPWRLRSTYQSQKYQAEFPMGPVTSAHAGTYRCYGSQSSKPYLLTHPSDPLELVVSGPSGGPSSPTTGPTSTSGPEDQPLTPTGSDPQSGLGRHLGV
LILRA4, sequence (P59901 24-446 limits assumed): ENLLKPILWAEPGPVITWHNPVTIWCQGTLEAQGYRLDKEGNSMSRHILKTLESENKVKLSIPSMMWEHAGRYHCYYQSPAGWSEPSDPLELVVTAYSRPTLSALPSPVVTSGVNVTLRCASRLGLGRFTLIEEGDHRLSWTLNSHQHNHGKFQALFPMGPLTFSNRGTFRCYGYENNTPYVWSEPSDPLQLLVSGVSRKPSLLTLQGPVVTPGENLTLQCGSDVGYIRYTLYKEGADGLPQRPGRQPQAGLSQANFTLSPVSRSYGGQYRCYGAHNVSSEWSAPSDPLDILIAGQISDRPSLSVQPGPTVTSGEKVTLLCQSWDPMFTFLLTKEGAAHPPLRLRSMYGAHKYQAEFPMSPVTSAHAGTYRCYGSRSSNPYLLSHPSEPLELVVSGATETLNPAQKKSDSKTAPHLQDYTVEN

B1: h193 antibody No. 19 (h193-H3 / h193-K1) (antibody, V domains shown)
VH: EVQLVESGGGLVQPGGSLRLSCAASGFSLSSSYWISWVRQAPGKGLEWIGSIDSGSVGITYYATWAKGRFTISRDNSKNTLYLQMNSLRAEDTAVYYCARHGDNWALDLWGQGTLVTVSS
VL: DIQMTQSPSTLSASVGDRVTITCQASQSINSWLAWYQQKPGKAPKLLIYKASTLASGVPSRFSGSGSGTEFTLTISSLQPDDFATYYCQHGYIRGDLDNVFGGGTKVEIK
Take B1: in assay [1], the EC50 is 0.294 µg/mL and 1.96 nM. Moreover, in [2], the Kd is 2.03 nM. The dissociation rate constant (koff) in assay [2] is 0.000294 s⁻¹. Besides, the kon in assay [2] came out at 145000 M⁻¹ s⁻¹. The binding result in the assay with LILRB1, with LILRB2, with LILRB3, in the assay with LILRB5, in the assay with LILRA1 and with LILRA2 was “no binding” throughout. Moreover, the binding result with LILRA3, with LILRA4, in the assay with LILRA5 and with LILRA6 was “no binding” each time.

B2: h193 antibody No. 20 (h193-H3 / h193-K2) (antibody, V domains shown)
VH: B1 VH
VL: B1 VL with I2L, Q3V, A43P, P59S, F83V
With B2, in assay [1], the EC50 is 0.272 µg/mL and 1.81 nM. For the same molecule, the Kd in assay [2] amounted to 1.67 nM. Also, the off-rate (koff) in [2] worked out at 0.00025 s⁻¹. Further, in assay [2], the kon was found to be 150000 M⁻¹ s⁻¹. Also, the binding result in the assay with LILRB1, with LILRB2, with LILRB3, with LILRB5, with LILRA1 and in the assay with LILRA2 was “no binding” throughout. The binding result in the assay with LILRA3, with LILRA4, with LILRA5 and with LILRA6 was “no binding” in each case.

B3: h193 antibody No. 27 (h193-H5 / h193-K1) (antibody, V domains shown)
VH: B1 VH with S51V
VL: B1 VL
With B3, the EC50 in assay [1] is over 6 nM. Also, the binding result in the assay with LILRB1, with LILRB2, in the assay with LILRB3, with LILRB5, with LILRA1 and with LILRA2 was “no binding” in each case. Also, the binding result in the assay with LILRA3, in the assay with LILRA4, with LILRA5 and in the assay with LILRA6 was “no binding” throughout.

B4: h193 antibody No. 23 (h193-H4 / h193-K1) (antibody, V domains shown)
VH: B1 VH with I49V, G50S
VL: B1 VL
Consider B4, for which the concentration for a half-maximal effect (EC50) in assay [1] is 0.461 µg/mL and 3.07 nM. Besides, the Kd in assay [2] amounted to 5.83 nM. The koff in assay [2] was 0.000731 s⁻¹. For the same molecule, the kon in assay [2] is 125000 M⁻¹ s⁻¹. In addition, the binding result with LILRB1, with LILRB2, with LILRB3, with LILRB5, with LILRA1 and with LILRA2 was “no binding” throughout. The binding result in the assay with LILRA3, with LILRA4, with LILRA5 and with LILRA6 was “no binding” each time.

B5: h193 antibody No. 32 (h193-H6 / h193-K2) (antibody, V domains shown)
VH: B1 VH with W65S
VL: B1 VL with I2L, Q3V, A43P, P59S, F83V
For B5, the concentration giving a half-maximal response (EC50) in assay [1] is 0.262 µg/mL and 1.74 nM. For the same molecule, the dissociation constant (Kd) in assay [2] worked out at 2.38 nM. The off-rate (koff) in [2] is 0.000362 s⁻¹. In assay [2], the on-rate constant (kon) was determined as 152000 M⁻¹ s⁻¹. The binding result with LILRB1, with LILRB2, with LILRB3, in the assay with LILRB5, with LILRA1 and with LILRA2 was “no binding” in each case. Besides, the binding result with LILRA3, with LILRA4, with LILRA5 and with LILRA6 was “no binding” throughout.

B6: h193 antibody No. 31 (h193-H6 / h193-K1) (antibody, V domains shown)
VH: B1 VH with W65S
VL: B1 VL
In the case of B6, the EC50 in assay [1] is 0.314 µg/mL and 2.09 nM. Besides, the Kd in assay [2] came to 2.61 nM. The off-rate constant (koff) in assay [2] is 0.000376 s⁻¹. The kon in [2] came to 144000 M⁻¹ s⁻¹. Moreover, the binding result with LILRB1, with LILRB2, with LILRB3, with LILRB5, with LILRA1 and in the assay with LILRA2 was “no binding” each time. Also, the binding result in the assay with LILRA3, with LILRA4, with LILRA5 and with LILRA6 was “no binding” throughout.

B7: h193 antibody No. 33 (h193-H6 / h193-K3) (antibody, V domains shown)
VH: B1 VH with W65S
VL: B1 VL with Q24R
Consider B7, for which the EC50 in assay [1] is 0.32 µg/mL and 2.13 nM. For the same molecule, the dissociation constant Kd in assay [2] stood at 2.33 nM. Also, the off-rate constant (koff) in assay [2] stood at 0.000345 s⁻¹. For the same molecule, the kon in [2] was determined as 148000 M⁻¹ s⁻¹. The binding result with LILRB1, with LILRB2, with LILRB3, with LILRB5, with LILRA1 and in the assay with LILRA2 was “no binding” throughout. The binding result in the assay with LILRA3, with LILRA4, with LILRA5 and with LILRA6 was “no binding” in each case.

B8: h193 antibody No. 24 (h193-H4 / h193-K2) (antibody, V domains shown)
VH: B1 VH with I49V, G50S
VL: B1 VL with I2L, Q3V, A43P, P59S, F83V
Consider B8, for which the EC50 in [1] was 0.467 µg/mL and 3.11 nM. For the same molecule, the equilibrium dissociation constant (Kd) in [2] turned out to be 4.41 nM. Further, the dissociation rate constant (koff) in assay [2] amounted to 0.000595 s⁻¹. Besides, the kon in [2] was determined as 135000 M⁻¹ s⁻¹. Further, the binding result in the assay with LILRB1, with LILRB2, in the assay with LILRB3, with LILRB5, with LILRA1 and in the assay with LILRA2 was “no binding” in each case. The binding result with LILRA3, in the assay with LILRA4, in the assay with LILRA5 and in the assay with LILRA6 was “no binding” in each case.

B9: h193 antibody No. 28 (h193-H5 / h193-K2) (antibody, V domains shown)
VH: B1 VH with S51V
VL: B1 VL with I2L, Q3V, A43P, P59S, F83V
For the molecule B9, the binding result with LILRB1, with LILRB2, with LILRB3, with LILRB5, with LILRA1 and with LILRA2 was “no binding” throughout. Moreover, the binding result with LILRA3, in the assay with LILRA4, in the assay with LILRA5 and with LILRA6 was “no binding” throughout.

One may read the EC50 as the concentration that produces a half-maximal response. For orientation: Kd means the concentration at which binding is half-saturated. Usually koff stands for the first-order rate constant of dissociation. By kon is commonly meant the second-order rate constant of association.
